From patent US20220387586A1 (Hoffmann-La Roche, published 2022) come the findings set out here.

Assay [1] addresses T1, PD1 on PD1+LAG3+ human U2OS cells (UniProt Q15116 25-288). Put plainly: cell-based or functional assay.
Assay [2] addresses T2, LAG3 on cells (recombinant CHO cells expressing Lag3) (human, UniProt P18627 29-525).
T2 construct: The cell ELISA paragraphs say only 'Lag3'; also called CHO-LAG3; Lag3 cells
T2 sequence: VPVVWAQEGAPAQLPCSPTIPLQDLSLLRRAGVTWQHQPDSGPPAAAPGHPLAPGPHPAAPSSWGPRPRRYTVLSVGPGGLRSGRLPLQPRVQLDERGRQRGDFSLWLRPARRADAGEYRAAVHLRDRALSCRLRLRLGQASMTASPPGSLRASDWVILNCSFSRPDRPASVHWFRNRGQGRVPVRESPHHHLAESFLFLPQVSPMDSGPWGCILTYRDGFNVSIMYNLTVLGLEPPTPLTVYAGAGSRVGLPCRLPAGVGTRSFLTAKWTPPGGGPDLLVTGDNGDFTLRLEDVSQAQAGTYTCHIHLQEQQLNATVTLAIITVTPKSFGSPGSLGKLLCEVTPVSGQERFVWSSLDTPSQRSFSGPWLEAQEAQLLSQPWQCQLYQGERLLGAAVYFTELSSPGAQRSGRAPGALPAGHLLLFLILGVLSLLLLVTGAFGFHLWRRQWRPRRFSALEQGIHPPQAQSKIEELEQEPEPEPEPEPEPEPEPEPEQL
Put plainly: cell ELISA on recombinant CHO cells expressing Lag3 (rel. EC50). How it is done:
After washing (1×90 μl in PBST) cells were fixed by addition of 30 μl/well glutaraldehyde to a final concentration of 0.05% (Sigma Cat.No: G5882), 10 min at room temperature. After washing (3×90 μl/well with PBST-buffer) 25 μl/well goat anti-Human Ig κ chain antibody-HRP conjugate (Milipore, AP502P) was added in a 1:1000 dilution and incubated at RT for 1 h. After washing (3×90 μl/well with PBST-buffer) 25 μl/well TMB substrate (Roche, 11835033001) was added and incubated for 6-10 min. Measurement took place on a Tecan Safire 2 instrument at 370/492 nm.
On the technique in general: In an ELISA, binding on a coated surface is turned into a signal by an enzyme label.

Assay [3] has as its target T1, PD1 on PD1+LAG3+ human U2OS cells. Nature of the assay: cell-based or functional assay. The source holds these as a separate data set.
The target of assay [4] is T3, recombinant Human LAG-3 Fc Chimera Protein (R&D Systems, 2319-L3) (human, UniProt P18627 29-450).
T3 construct: Bought protein; also called huLAG3; not shown: Fc part of the chimera
T3 sequence: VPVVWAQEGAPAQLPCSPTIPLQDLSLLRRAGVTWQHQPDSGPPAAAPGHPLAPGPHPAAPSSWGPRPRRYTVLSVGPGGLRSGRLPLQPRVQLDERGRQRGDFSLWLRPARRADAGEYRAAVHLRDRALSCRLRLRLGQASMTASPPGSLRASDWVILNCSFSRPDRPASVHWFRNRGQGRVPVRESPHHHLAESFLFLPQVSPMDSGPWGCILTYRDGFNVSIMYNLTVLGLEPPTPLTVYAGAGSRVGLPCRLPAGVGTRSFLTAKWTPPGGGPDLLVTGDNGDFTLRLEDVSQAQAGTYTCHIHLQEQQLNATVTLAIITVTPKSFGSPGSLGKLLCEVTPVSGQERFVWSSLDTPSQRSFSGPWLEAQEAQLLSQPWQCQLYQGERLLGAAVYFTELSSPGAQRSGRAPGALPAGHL
Nature of the assay: ELISA on coated Human LAG-3 Fc Chimera (rel. EC50). How it is done: After washing (3×90 μl/well with PBST-buffer) each well was incubated with 90 μl blocking buffer (PBS+2% BSA+0.05% Tween 20) for 1 h at room temperature. […] After washing (3×90 μl/well with PBST-buffer) 25 μl/well goat anti-Human Ig κ chain antibody-HRP conjugate (Milipore, AP502P) was added in a 1:2000 dilution and incubated at RT for 1 h. After washing (3×90 μl/well with PBST-buffer) 25 μl/well TMB substrate (Roche, 11835033001) was added and incubated for 2-10 min. Measurement took place on a Tecan Safire 2 instrument at 370/492 nm.

The target in assay [5] is T4, biotinylated-Lag3 (UniProt P18627 23-450, limits assumed, biotinylated).
T4 construct: Probably a human LAG3 ECD construct; also called Lag3 (MHCII/ELISA)
T4 sequence (looked up): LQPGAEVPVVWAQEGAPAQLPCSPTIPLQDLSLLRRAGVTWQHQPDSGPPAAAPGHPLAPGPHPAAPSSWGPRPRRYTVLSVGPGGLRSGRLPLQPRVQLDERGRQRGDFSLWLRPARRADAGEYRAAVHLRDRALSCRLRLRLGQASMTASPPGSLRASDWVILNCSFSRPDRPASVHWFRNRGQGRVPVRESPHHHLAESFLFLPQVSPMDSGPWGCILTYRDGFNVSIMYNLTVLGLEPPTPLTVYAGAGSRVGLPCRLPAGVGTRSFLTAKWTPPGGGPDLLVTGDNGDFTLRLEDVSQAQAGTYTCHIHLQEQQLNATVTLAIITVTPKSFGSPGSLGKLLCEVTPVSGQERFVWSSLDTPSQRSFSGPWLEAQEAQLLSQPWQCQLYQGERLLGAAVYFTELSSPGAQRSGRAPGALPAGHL
Nature of the assay: ELISA, inhibition of biotinylated-Lag3 binding to MHC-II on A375 cells (competitor MHC-II). How it is done: 25 μl/well of A375 cells (10000 cells/well) were seeded into tissue culture treated 384-well plates (Corning, 3701) and incubated at 37° C. overnight. […] After washing (1×90 μl in PBST) cells were fixed by addition of 30 μl/well glutaraldehyde to a final concentration of 0.05% (Sigma Cat.No: G5882), 10 min at room temperature. After washing (3×90 μl/well with PBST-buffer) 25 μl/well Poly-HRP40-Streptavidin (Fitzgerald, 65R-S104PHRPx) was added in a 1:2000 or 1:8000 dilution and incubated at RT for 1 h. After washing (3×90 μl/well with PBST-buffer) 25 μl/well TMB substrate (Roche, 11835033001) was added and incubated for 2 to 10 min. Measurement took place on a Tecan Safire 2 instrument at 370/492 nm.

The target in assay [6] is T5, full-length human PD1 on cells (human, UniProt Q15116 25-288).
T5 construct: also called CHO-PD1
Put plainly: cell ELISA on CHO-K1 cells expressing full-length human PD1 (rel. EC50). The protocol: (to avoid internalization). After washing carefully (1×90 μl/well PBST) cells were fixed by adding 30 μl/well 0.05% Glutaraldehyde (Sigma, Cat.No: G5882, 25%) diluted in 1×PBS-buffer and incubated for 10 min at RT. After washing (3×90 μl/well PBST) 25 μl/well secondary antibody was added for detection: goat-anti-human H+L-POD (JIR, JIR109-036-088)/Sheep-anti-mouse-POD (GE NA9310) followed by 1 h incubation at RT on shaker. After washing (3×90 μl/well PBST) 25 μl/well TMB substrate solution (Roche 11835033001) was added and incubated until OD 1.0-2.0. Plates were measured at 370/492 nm.

Assay [7] addresses T6, biotinylated PD1-ECD-AviHis (human, UniProt Q15116 25-170, biotinylated).
T6 construct: also called huPD1; hu PD1; not shown: Avi-His tag
Nature of the assay: ELISA on coated biotinylated PD1-ECD-AviHis (rel. EC50). How it is done: After washing (3×90 μl/well with PBST-buffer) 25 μl/well goat-anti-human H+L-POD (JIR, JIR109-036-098) was added in 1:5000 dilution and incubated at RT for 1 h on a shaker. After washing (3×90 μl/well with PBST-buffer) 25 μl/well of TMB substrate (Roche, 11835033001) was added and incubated until OD 2-3. Measurement took place at 370/492 nm.

As usually defined, the EC50 is the concentration giving half of the maximal effect. In general, IC50 refers to the point on the concentration scale where inhibition reaches its midpoint. Higher therefore signals a need for much substance.

Where two headings read alike, the source gives them in different places.

T5 sequence (Q15116 25-288 limits assumed): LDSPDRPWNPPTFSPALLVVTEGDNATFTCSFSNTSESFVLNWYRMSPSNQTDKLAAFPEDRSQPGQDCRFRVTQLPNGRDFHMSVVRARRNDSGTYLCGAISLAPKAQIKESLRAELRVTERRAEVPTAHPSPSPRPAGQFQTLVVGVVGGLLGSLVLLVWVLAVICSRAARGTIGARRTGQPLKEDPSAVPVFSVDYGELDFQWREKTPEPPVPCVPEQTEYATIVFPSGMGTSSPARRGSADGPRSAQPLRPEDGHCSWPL
T1 sequence (Q15116 25-288): as the sequence (Q15116 25-288 limits assumed) above
T6 sequence (Q15116 25-170): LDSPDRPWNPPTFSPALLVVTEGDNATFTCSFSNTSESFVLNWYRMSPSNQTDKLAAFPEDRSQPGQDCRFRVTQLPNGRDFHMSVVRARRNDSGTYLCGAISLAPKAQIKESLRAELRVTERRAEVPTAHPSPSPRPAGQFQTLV

B1: PD1/LAG3 8310 (bispecific antibody, human IgG1, kappa, L234A L235A)
heavy 1: not shown
heavy 2: EVQLLESGGGLVQPGGSLRLSCAASGFIFDDYTMNWVRQAPGKGLEWVAVISWDGGGTYYTDSVKGRFTISRDDFKNTLYLQMNSLRAEDTAVYYCAKGLTDTTLYGSDYWGQGTLVTVSSASTKGPSVFPLAPSSKSTSGGTAALGCLVEDYFPEPVTVSWNSGALTSGVHTFPAVLQSSGLYSLSSVVTVPSSSLGTQTYICNVNHKPSNTKVDEKVEPKSCDKTHTCPPCPAPEAAGGPSVFLFPPKPKDTLMISRTPEVTCVVVDVSHEDPEVKFNWYVDGVEVHNAKTKPREEQYNSTYRVVSVLTVLHQDWLNGKEYKCKVSNKALGAPIEKTISKAKGQPREPQVCTLPPSRDELTKNQVSLSCAVKGFYPSDIAVEWESNGQPENNYKTTPPVLDSDGSFFLVSKLTVDKSRWQQGNVFSCSVMHEALHNHYTQKSLSLSPGK
light 1: DIVMTQSPDSLAVSLGERATINCKASESVDTSDNSFIHWYQQKPGQSPKLLIYRSSTLESGVPDRFSGSGSGTDFTLTISSLQAEDVAVYYCQQNYDVPWTFGQGTKVEIKSSASTKGPSVFPLAPSSKSTSGGTAALGCLVKDYFPEPVTVSWNSGALTSGVHTFPAVLQSSGLYSLSSVVTVPSSSLGTQTYICNVNHKPSNTKVDKKVEPKSC
light 2: not shown
notes: 2+1 format: two LAG3 Fabs, one PD1 crossFab fused to the C-terminus of the Fc knob heavy chain
For B1, the “EC50 [pM], dimerization binding assay (chemoluminescence)” value (from here on “EC50 [pM], dimerization binding assay”) in assay [1] is 114 pM; in assay [3], 28 pM. Moreover, the EC50 in assay [2] is 0.2 nM; in assay [4] it was 0.06 nM; in assay [6] it was 0.34 nM; in assay [7], 0.06 nM. Moreover, the IC50 in assay [5] is 0.47 nM.

B2: PD1/LAG3 8984 (bispecific antibody, human IgG1, kappa, L234A L235A)
heavy: not shown
light 1: DIVMTQSPDSLAVSLGERATINCKASESVDTSDNSFIHWYQQKPGQSPKLLIYRSSTLESGVPDRFSGSGSGTDFTLTISSLQAEDVAVYYCQQNYDVPWTFGQGTKVEIKSSASTKGPSVFPLAPSSKSTSGGTAALGCLVKDYFPEPVTVSWNSGALTSGVHTFPAVLQSSGLYSLSSVVTVPSSSLGTQTYICNVNHKPSNTKVDKKVEPKSC
light 2: not shown
notes: 2+2 format
Regarding B2, the “EC50 [pM], dimerization binding assay” value in assay [1] worked out at 91 pM. Also, the EC50 in assay [2] is 0.17 nM; in assay [4] it was 0.05 nM; in assay [6], 0.54 nM; in assay [7], 0.05 nM. In assay [5], this molecule gave an IC50 of 0.44 nM.

B3: PD1/LAG3 8970 (bispecific antibody, human IgG1, kappa, L234A L235A)
heavy: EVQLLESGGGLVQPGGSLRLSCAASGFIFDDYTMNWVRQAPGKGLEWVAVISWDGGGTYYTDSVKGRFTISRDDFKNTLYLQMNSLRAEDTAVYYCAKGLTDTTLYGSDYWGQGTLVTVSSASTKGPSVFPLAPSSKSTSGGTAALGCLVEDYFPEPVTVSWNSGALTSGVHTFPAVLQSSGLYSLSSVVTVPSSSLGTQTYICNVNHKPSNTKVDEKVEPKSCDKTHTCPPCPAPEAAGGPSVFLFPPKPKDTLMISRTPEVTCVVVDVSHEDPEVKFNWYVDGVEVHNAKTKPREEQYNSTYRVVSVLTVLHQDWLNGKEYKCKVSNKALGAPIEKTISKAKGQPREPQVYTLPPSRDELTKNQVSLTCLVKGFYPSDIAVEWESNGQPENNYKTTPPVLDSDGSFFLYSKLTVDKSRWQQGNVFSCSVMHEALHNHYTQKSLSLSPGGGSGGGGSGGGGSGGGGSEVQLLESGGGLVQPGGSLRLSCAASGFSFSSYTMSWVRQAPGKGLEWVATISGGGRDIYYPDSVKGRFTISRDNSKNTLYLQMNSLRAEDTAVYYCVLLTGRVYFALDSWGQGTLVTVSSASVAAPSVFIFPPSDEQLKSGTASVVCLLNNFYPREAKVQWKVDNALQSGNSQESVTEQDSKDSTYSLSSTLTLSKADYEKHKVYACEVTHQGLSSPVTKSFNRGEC
light 1: DIVMTQSPDSLAVSLGERATINCKASESVDTSDNSFIHWYQQKPGQSPKLLIYRSSTLESGVPDRFSGSGSGTDFTLTISSLQAEDVAVYYCQQNYDVPWTFGQGTKVEIKSSASTKGPSVFPLAPSSKSTSGGTAALGCLVKDYFPEPVTVSWNSGALTSGVHTFPAVLQSSGLYSLSSVVTVPSSSLGTQTYICNVNHKPSNTKVDKKVEPKSC
light 2: not shown
notes: 2+2 format
In the case of B3, in assay [1], the “EC50 [pM], dimerization binding assay” value was determined as 83 pM. The EC50 is 0.2 nM in assay [2], 0.04 nM in assay [4], 0.46 nM in assay [6] and 0.05 nM in assay [7]. The same molecule registered an IC50 in assay [5] of 0.45 nM.

B4: PD1/LAG3 8311 (bispecific antibody, human IgG1, kappa, L234A L235A)
heavy 1: not shown
heavy 2: EVQLVESGGGLVQPGGSLRLACAASGFTFSDYAMSWVRQAPGKGLEWVSGIDNSGYYTYYTDSVKGRFTISRDDVKNTLYLQMNSLRAEDTAVYLCTKTHSGLIVNDAFDIWGQGTMVTVSSASTKGPSVFPLAPSSKSTSGGTAALGCLVEDYFPEPVTVSWNSGALTSGVHTFPAVLQSSGLYSLSSVVTVPSSSLGTQTYICNVNHKPSNTKVDEKVEPKSCDKTHTCPPCPAPEAAGGPSVFLFPPKPKDTLMISRTPEVTCVVVDVSHEDPEVKFNWYVDGVEVHNAKTKPREEQYNSTYRVVSVLTVLHQDWLNGKEYKCKVSNKALGAPIEKTISKAKGQPREPQVCTLPPSRDELTKNQVSLSCAVKGFYPSDIAVEWESNGQPENNYKTTPPVLDSDGSFFLVSKLTVDKSRWQQGNVFSCSVMHEALHNHYTQKSLSLSPGK
light 1: DIVMTQSPDSLAVSLGERATINCKASESVDTSDNSFIHWYQQKPGQSPKLLIYRSSTLESGVPDRFSGSGSGTDFTLTISSLQAEDVAVYYCQQNYDVPWTFGQGTKVEIKSSASTKGPSVFPLAPSSKSTSGGTAALGCLVKDYFPEPVTVSWNSGALTSGVHTFPAVLQSSGLYSLSSVVTVPSSSLGTQTYICNVNHKPSNTKVDKKVEPKSC
light 2: not shown
notes: as for B1
In the case of B4, the “EC50 [pM], dimerization binding assay” value in assay [1] stood at 124 pM; in assay [3], 119 pM. Further, the EC50 in assay [2] was determined as 0.17 nM; in assay [4], 0.06 nM; in assay [6], 0.32 nM; in assay [7] it was 0.05 nM. In addition, in assay [5], the IC50 was determined as 0.39 nM.
